From patent US6475744 (GENERAL HOSPITAL CORPORATION A MASSACHUSETTS, dated 2002)

B1: human (h)MOP4 (other, UniProt Q99743 1-824, looked up)
chain: MDEDEKDRAKRASRNKSEKKRRDQFNVLIKELSSMLPGNTRKMDKTTVLEKVIGFLQKHNEVSAQTEICDIQQDWKPSFLSNEEFTQLMLEALDGFIIAVTTDGSIIYVSDSITPLLGHLPSDVMDQNLLNFLPEQEHSEVYKILSSHMLVTDSPSPEYLKSDSDLEFYCHLLRGSLNPKEFPTYEYIKFVGNFRSYNNVPSPSCNGFDNTLSRPCRVPLGKEVCFIATVRLATPQFLKEMCIVDEPLEEFTSRHSLEWKFLFLDHRAPPIIGYLPFEVLGTSGYDYYHIDDLELLARCHQHLMQFGKGKSCCYRFLTKGQQWIWLQTHYYITYHQWNSKPEFIVCTHSVVSYADVRVERRQELALEDPPSEALHSSALKDKGSSLEPRQHFNTLDVGASGLNTSHSPSASSRSSHKSSHTAMSEPTSTPTKLMAEASTPALPRSATLPQELPVPGLSQAATMPAPLPSPSSCDLTQQLLPQTVLQSTPAPMAQFSAQFSMFQTIKDQLEQRTRILQANIRWQQEELHKIQEQLCLVQDSNVQMFLQQPAVSLSFSSTQRPEAQQQLQQRSAAVTQPQLGAGPQLPGQISSAQVTSQHLLRESSVISTQGPKPMRSSQLMQSSGRSGSSLVSPFSSATAALPPSLNLTTPASTSQDASQCQPSPDFSHDRQLRLLLSQPIQPMMPGSCDARQPSEVSRTGRQVKYAQSQTVFQNPDAHPANSSSAPMPVLLMGQAVLHPSFPASQPSPLQPAQARQQPPQHYLQVQAPTSLHSEQQDSLLLSTYSQQPGTLGYPQPPPAQPQPLRPPRRVSSLSESSGLQQPPR
B2: mTIM-V5 (other, not shown: small tags and cut ends)
chain: MDLYMMNCELLATCSALGYLEGGTYHKEPDCLESVKDLIRYLRHEDETRDVRQQLGAAQILQSDLLPILTQHRQDKPLFDAVIRLMVNLTQPALLCFGSVPKDSSVRHHFLQVLTYLQAYKEAFASEKAFGVLSETLYELLQLGWEDRQEEDNLLIERILLLVRNILHVPANLEQEKSIDDDASIHDRLLWAIHLSGMDDLLLFLSSSSAEQQWSLHVLEIISLMFRDQTPEQLAGVGQGRLAQERSTDVAELEVLRQREMAEKRARALQRGNRHSRFGGSYIVQGLKSIGEKDVVFHKGLHNLQNYSSDLGKQPRRVPKRRQAAQELSVHRRSVLNVRLFLRDFCSEFLENCYNPLMGAVKDHLLRERAQQHDETYYMWAMAFFMAFNRAATFRPGLVSETLSIRTFHFVEQNLTNYYEMMLTDRKEAASWARRMHLALKAYQELLATVNEMDMCPDEAVRESSRIIKNNIFYMMEYRELFLALFRKFDERYHPRSFLRDLVETTHLFLKMLERFCRSRGNLMVQNKRKKRKKKKKVQDQGVAFSQSPGELEAMWPALAEQLLQCAQDPELSVDPVVPFDAASEVPVEEQRVEAMVRIQDCLTAGQAPQALALLRSAREVWPEGNAFGSPVISPGEEMQLLKQILSTPLPRQQEPEEGDAEEEEEEEEEEELQVVQVSEKEFNFLEYLKRFASSTIVRAYVLLLRSYRQNSAHTNHCIAKMLHRLAHGLGMEALLFQLSLFCLFNRLLSDPAAAAYKELVTFAKYIIGKFFALAAVNQKAFVELLFWKNTAVVREMTQGYGSLDSGSSSHRAPLWSPEEEAQLQELYLAHKDVEGQDVVETILAHLKVVPRTRKQVIHHLVRMGLADSVKEFQKRKGTQIVLWTEDQELELQRLFEEFRDSDDVLGQIMKNITAKRSRARVVDKLLALGLVSERRQLYKKRRKKLAPSCMQNGEKSPRDPWQEDPEEEDEHLPEDESEDEESEEGLPSGQGQGSSSLSAENLGESLRQEGLSAPLLWLQSSLIRAANDREEDGCSQAIPLVPLTEENEEAMENEQFQHLLRKLGIRPPSSGQETFWRIPAKLSSTQLRRVAASLSQQENEEEREEEPEPGVPGEQGPSEEHRTEALRALLSARKRKAGLGPTEEEATGEEEWNSAPKKRQLLDSDEEEDDEGRRQAVSGTPRVHRKKRFQIEDEDD
notes: the construct was made from the coding region of AF071506; Printed once as 'mTIM-VS', read as V5; also called mTIM-VS
B3: mPER3-HA (other, mouse, UniProt O70361 1-1113, looked up, not shown: small tags and cut ends)
chain: MDPCGDPAVPGGDCPQTRGPGLQGASGQEGPLQGTCVDSSHSEHEDRNRMSEELIMVVQEMKKYFPAERHTKPSTLDALNYALRCVHSVQANSDFFQSLGPRGAHQADVTVYSLEDLTALASEHTSKNTDTFAAVFSFLSGRLVHISEQAALILNSKRGFLKSVHFVDLLAPQDVRAFYAHTAPTQLPFWNNWTQRASQYECAPAKPFFCRICGGGDREKRHYSPFRILPYLVHVHSSAQPEPEPCCLTLVEKIHSGYEAPRIPVDKRIFTTTHTPGCVFLEVDERAVPLLGYLPQDLIGTSILTYLHPEDRPLMVAIHQKVLKYAGHPPFEHSPVRFCTQNGEYVILDSSWSSFVNPWSRKVSFIIGRHKVRTSPLNEDVFATRIKKAASNDKDIAELQEQIHKLLLQPVHASASSGYGSLGSSGSQEQHVSITSSSESSGHCPEEGQHEQMTLQQVYASVNKIKNVGQQLYIESMARSSVKPVAETCVEPQGGDEQKDFSSSQTLKNKSTTDTGSGGNLQQEQPSSSYQQMNCIDSVIRYLTSYSLPALKRKCISCTNTSSSSEEAKPIPEVDSSQRDTEQLLDIRKQETTGPSTDIEGGAARTLSTAALSVASGISQCSCSSTSGHAPPLQSESVAVACKPWALRTKASHLAAGGFKHVGLTAAVLSAHTQKEEQNYVDRFREKILTSPYGCYLQQESRNRAQYSCVQAGSTAKHSRCAGSERQKHKRKKLPAPVDTSSPGAHLCPHVTGLLPDEQHWGPSASPSPLGAGLAFPSALVVPSQTPYLLPSFPLQDMASQGVGVSAAWGAAAGCPPLSAGPQAVAAFPSAYVDTLMTIFLHNAPLFPLWPPSFSPYPSLGAAGSSELAPLVPAMAPNPEPTTSGHSQRRVEENWEAHSEELPFISSRSSSPLQLNLLQEEMPAPSESADAVRRGAGPDAKHHCVTGPSGSRSRHCTSGELATATAQQESAAASGSSASSIYFSSTDYASEVSENRQRPQDRQRDEALPGAAEESIWRMIERTPECVLMTYQVPERGREEVLKQDLEKLQSMEQQQPLFSPAQREELAKVRSWIHSHTAPQEGHLQSCVACEDRGSVGDTAEVLEQHPAEDTS
notes: Expressed in COS7 cells from pcDNA 3.1; immunoprecipitated with anti-HA antibody
B4: mCLOCK (other, mouse, UniProt O08785 1-855, looked up)
chain: MVFTVSCSKMSSIVDRDDSSIFDGLVEEDDKDKAKRVSRNKSEKKRRDQFNVLIKELGSMLPGNARKMDKSTVLQKSIDFLRKHKETTAQSDASEIRQDWKPTFLSNEEFTQLMLEALDGFFLAIMTDGSIIYVSESVTSLLEHLPSDLVDQSIFNFIPEGEHSEVYKILSTHLLESDSLTPEYLKSKNQLEFCCHMLRGTIDPKEPSTYEYVRFIGNFKSLTSVSTSTHNGFEGTIQRTHRPSYEDRVCFVATVRLATPQFIKEMCTVEEPNEEFTSRHSLEWKFLFLDHRAPPIIGYLPFEVLGTSGYDYYHVDDLENLAKCHEHLMQYGKGKSCYYRFLTKGQQWIWLQTHYYITYHQWNSRPEFIVCTHTVVSYAEVRAERRRELGIEESLPETAADKSQDSGSDNRINTVSLKEALERFDHSPTPSASSRSSRKSSHTAVSDPSSTPTKIPTDTSTPPRQHLPAHEKMTQRRSSFSSQSINSQSVGPSLTQPAMSQAANLPIPQGMSQFQFSAQLGAMQHLKDQLEQRTRMIEANIHRQQEELRKIQEQLQMVHGQGLQMFLQQSNPGLNFGSVQLSSGNSNIQQLTPVNMQGQVVPANQVQSGHISTGQHMIQQQTLQSTSTQQSQQSVMSGHSQQTSLPSQTPSTLTAPLYNTMVISQPAAGSMVQIPSSMPQNSTQSATVTTFTQDRQIRFSQGQQLVTKLVTAPVACGAVMVPSTMLMGQVVTAYPTFATQQQQAQTLSVTQQQQQQQQQPPQQQQQQQQSSQEQQLPSVQQPAQAQLGQPPQQFLQTSRLLHGNPSTQLILSAAFPLQQSTFPPSHHQQHQPQQQQQLPRHRTDSLTDPSKVQPQ

Tests used:
[1] = biological target: CYC (Drosophila) (UniProt O61734); assay: cell-based or functional assay
Chain of CYC (Drosophila) (O61734 whole entry): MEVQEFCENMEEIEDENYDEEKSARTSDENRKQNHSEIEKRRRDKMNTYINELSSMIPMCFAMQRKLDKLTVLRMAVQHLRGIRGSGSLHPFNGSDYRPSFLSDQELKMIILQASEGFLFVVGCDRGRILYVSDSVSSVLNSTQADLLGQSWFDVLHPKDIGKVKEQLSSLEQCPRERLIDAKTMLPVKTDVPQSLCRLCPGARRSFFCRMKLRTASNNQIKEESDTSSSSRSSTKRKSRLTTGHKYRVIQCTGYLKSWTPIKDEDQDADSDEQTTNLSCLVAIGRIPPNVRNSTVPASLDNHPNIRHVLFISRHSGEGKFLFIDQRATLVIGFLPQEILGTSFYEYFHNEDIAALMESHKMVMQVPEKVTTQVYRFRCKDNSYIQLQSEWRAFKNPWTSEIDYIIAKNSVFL

[2] = biological target: syrian hamster (sh)BMAL1 (syrian hamster, UniProt O88529 1-626); assay: cell-based or functional assay
Chain of syrian hamster (sh)BMAL1 (O88529 whole entry): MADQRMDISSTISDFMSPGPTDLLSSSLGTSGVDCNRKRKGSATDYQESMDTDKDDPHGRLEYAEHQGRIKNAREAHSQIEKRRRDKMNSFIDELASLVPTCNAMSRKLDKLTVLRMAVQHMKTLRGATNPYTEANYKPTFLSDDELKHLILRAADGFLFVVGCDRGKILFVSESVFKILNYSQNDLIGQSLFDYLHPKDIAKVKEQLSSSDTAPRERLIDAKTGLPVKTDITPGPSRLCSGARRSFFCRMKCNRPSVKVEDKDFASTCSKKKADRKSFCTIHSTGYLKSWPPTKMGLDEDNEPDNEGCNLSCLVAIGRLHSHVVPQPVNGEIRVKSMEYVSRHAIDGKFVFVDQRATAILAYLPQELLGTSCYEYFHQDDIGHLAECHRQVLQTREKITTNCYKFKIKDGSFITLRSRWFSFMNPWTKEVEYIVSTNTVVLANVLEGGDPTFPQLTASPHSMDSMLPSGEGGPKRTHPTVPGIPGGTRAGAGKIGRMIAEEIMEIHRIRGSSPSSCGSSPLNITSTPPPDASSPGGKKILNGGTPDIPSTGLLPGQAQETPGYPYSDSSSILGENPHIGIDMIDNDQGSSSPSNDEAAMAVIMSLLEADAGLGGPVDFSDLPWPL

[3] = biological target: T1, mPER1-HA (mouse, UniProt O35973 1-1291); assay: co-immunoprecipitation from co-transfected COS7 cells, anti-HA IP, anti-V5 blot
T1 construct: Expressed in COS7 cells; used in place of mPER3-HA in co-immunoprecipitation
T1 sequence (O35973 whole entry): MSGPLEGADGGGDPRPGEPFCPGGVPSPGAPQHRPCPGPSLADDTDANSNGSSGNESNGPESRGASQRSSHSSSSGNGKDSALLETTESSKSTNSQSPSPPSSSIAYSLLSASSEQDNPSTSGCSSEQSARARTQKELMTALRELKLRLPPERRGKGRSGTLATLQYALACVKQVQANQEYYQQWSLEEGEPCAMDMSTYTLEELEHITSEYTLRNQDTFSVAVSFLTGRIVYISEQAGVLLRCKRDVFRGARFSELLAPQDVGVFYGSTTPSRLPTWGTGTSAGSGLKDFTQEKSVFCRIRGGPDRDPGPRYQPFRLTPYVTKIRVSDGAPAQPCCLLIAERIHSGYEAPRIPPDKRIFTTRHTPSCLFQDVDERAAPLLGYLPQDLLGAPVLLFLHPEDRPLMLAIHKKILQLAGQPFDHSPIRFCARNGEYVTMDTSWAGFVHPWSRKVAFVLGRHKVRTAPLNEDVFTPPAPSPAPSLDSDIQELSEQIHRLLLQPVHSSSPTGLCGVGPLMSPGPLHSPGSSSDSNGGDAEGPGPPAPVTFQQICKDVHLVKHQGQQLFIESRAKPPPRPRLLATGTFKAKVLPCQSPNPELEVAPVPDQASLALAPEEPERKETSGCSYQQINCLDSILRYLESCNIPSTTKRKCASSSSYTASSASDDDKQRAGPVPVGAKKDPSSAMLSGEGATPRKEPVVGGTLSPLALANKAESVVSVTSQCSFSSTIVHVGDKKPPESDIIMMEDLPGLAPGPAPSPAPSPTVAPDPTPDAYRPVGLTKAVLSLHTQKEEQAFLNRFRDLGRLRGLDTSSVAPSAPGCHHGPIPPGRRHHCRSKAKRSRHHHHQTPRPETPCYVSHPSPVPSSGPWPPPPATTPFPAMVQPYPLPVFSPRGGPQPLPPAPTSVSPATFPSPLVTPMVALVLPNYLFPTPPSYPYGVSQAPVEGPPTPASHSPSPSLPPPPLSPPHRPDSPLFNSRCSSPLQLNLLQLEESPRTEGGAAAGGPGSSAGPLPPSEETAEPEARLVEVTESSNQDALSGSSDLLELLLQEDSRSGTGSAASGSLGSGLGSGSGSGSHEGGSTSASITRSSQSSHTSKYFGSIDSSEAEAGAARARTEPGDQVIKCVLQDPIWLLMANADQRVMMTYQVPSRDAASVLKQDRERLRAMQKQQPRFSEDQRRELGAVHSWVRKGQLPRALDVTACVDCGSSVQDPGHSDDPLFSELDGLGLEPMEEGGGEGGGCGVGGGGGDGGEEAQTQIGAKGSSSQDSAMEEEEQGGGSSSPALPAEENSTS
Experimental: (§1) Subsequently, the beads were washed four times (400 μl binding buffer for 10 min. per wash), mixed with 5 μl of 4×sodium dodecyl sulfate (SDS) gel loading buffer, boiled, and centrifuged. The supernatant was analyzed by SDS-polyacrylamide gel electrophoresis (PAGE) and western blotted as follows. Total protein (5 μg) from COS7 cells was extracted as described above, separated by SDS-PAGE, and transferred to a nitrocellulose membrane using a semi-dry blotting apparatus. Membranes were blocked with 5% non-fat milk. Blots were incubated with either the mouse anti-HA antibody (1:10,000) or the mouse anti-V5 antibody (1:5,000) overnight at 4EC. A goat anti-mouse horseradish peroxidase secondary antibody (1:10,000) was used in combination with enhanced chemiluminescence (NEN) to detect proteins.
(§2) Following detection of epitope-tagged proteins with one antibody, the blots were stripped in stripping buffer (62.5 mM Tris-HCl (pH 6.7), 100 mM 2-mercaptoethanol, 2% SDS) at 50EC for 30 minutes. The membrane was washed extensively (20 mM Tris, pH 7.6, 137 mM NaCl, 0.05% Tween-20) then blocked again and processed for detection of the second epitope-tagged protein.

[4] = biological target: B2; assay: as above
Experimental: as §1, §2

Molecule	transcriptional activation (vasopressin promoter luciferase reporter, NIH3T3 cells) [2] [fold increase]	transcriptional activity (per E box luciferase reporter, S2 cells) [2] [fold]	also measured
dCLOCK (from UniProt O61735 1-1027)	–	–	transcriptional activity (per E box luciferase reporter, S2 cells) [1]: 265 fold
B1	37	539	–
B2	–	–	binding result [3]: no binding
B3	–	–	binding result [4]: no binding
B4	10	1740	–
